Results taken from PMC4431670 (Structure(London, England:1993), 2015).
One block for each binder: values may come before it.

Tests used:
[1] = molecular target: T1, C-terminal domain of Not1 (Not1C), residues 1541-2093 (S. cerevisiae, UniProt P25655 1541-2093); assay: pull-down
T1 sequence (looked up): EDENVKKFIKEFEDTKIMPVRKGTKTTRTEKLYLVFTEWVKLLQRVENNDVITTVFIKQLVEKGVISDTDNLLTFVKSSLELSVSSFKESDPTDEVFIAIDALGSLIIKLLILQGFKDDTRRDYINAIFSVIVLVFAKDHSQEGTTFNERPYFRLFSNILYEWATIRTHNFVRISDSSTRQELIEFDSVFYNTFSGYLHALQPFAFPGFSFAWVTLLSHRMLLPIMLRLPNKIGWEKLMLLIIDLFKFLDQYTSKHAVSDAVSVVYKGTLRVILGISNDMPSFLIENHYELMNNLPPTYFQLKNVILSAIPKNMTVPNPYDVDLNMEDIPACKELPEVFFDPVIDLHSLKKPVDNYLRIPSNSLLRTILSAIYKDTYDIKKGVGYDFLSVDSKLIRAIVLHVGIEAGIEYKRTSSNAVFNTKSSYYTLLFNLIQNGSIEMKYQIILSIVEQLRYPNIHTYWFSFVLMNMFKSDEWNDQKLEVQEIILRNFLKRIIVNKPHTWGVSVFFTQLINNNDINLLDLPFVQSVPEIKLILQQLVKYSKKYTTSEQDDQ

[2] = molecular target: T1, C-terminal domain of Not1 (Not1C), …; assay: crystal structure

- binding result [1]: binds
B1: GST-tagged Not4C (domain or fragment, S. cerevisiae, UniProt P34909 418-477, looked up)
chain: DPYDALGNAVDFLDARLHSLSNYQKRPISIKSNIIDEETYKKYPSLFSWDKIEASKKSDN

- binding result [2]: binds
B2: Not4C, residues 418-477 of Not4 (domain or fragment, S. cerevisiae, UniProt P34909 418-477, looked up)
chain: B1 chain
